Biological target: NStr-M35_S, M35 short version (aa 2-452) with N-terminal Twin-Strep tag and TEV cleavage sequence (murine cytomegalovirus (MCMV))
Test: SEC-MALS

**Q.** How did the stoichiometry N turn out when “NStr-M35_S, M35 short version (aa 2-452) with N-terminal Twin-Strep tag and TEV cleavage sequence (domain or fragment)” was run?
**A.** 2
